Results from US20200062804A1 (ADRX, published 2020).
“And” between values parts separate entries of the source, which are not always exact repeats. Identical values can stand only once. Non-standard residues stand in square brackets, D forms with d. No end group written: not given here.

B1: IRIRHYR (peptide)
peptide: IRIRHYR
B2: hwrwlrr (peptide)
peptide: [dH][dW][dR][dW][dL][dR][dR]
B3: LLIKYHA (peptide)
peptide: LLIKYHA
B4: rqmqyrr (peptide)
peptide: [dR][dQ][dM][dQ][dY][dR][dR]
B5: fwawhrr (peptide)
peptide: [dF][dW][dA][dW][dH][dR][dR]
B6: WTRIYLH (peptide)
peptide: WTRIYLH
B7: rfyrhhr (peptide)
peptide: [dR][dF][dY][dR][dH][dH][dR]
B8: fwrwhar (peptide)
peptide: [dF][dW][dR][dW][dH][dA][dR]
B9: hwrwrwr (peptide)
peptide: [dH][dW][dR][dW][dR][dW][dR]
B10: krwrhqr (peptide)
peptide: [dK][dR][dW][dR][dH][dQ][dR]
B11: LRIRHVK (peptide)
peptide: LRIRHVK
B12: wwrrhhr (peptide)
peptide: [dW][dW][dR][dR][dH][dH][dR]
B13: IRIARYR (peptide)
peptide: IRIARYR
B14: LLIKYHR (peptide)
peptide: LLIKYHR
B15: IRIRRAA (peptide)
peptide: IRIRRAA
B16: kqwyhwr (peptide)
peptide: [dK][dQ][dW][dY][dH][dW][dR]
B17: LYIRTYH (peptide)
peptide: LYIRTYH
B18: LLIKAHR (peptide)
peptide: LLIKAHR
B19: LTIKLWH (peptide)
peptide: LTIKLWH
B20: WYIRLWK (peptide)
peptide: WYIRLWK
B21: fwrhkhr (peptide)
peptide: [dF][dW][dR][dH][dK][dH][dR]
B22: awrwhrr (peptide)
peptide: [dA][dW][dR][dW][dH][dR][dR]
B23: IYIYHQR (peptide)
peptide: IYIYHQR
B24: IRIRRYA (peptide)
peptide: IRIRRYA
B25: RLYIRLS (peptide)
peptide: RLYIRLS
B26: WYIRTYH (peptide)
peptide: WYIRTYH
B27: farwhrr (peptide)
peptide: [dF][dA][dR][dW][dH][dR][dR]

Target: T1, Nat1 (LTIITLE) (also: TFA salt)
T1 peptide: LTIITLE
Assay: cell-based or functional assay

Row | Binder | IC50, Thiofiavin T aggregation assay
1 | B1 | 14 nM
2 | B2 | 43 nM
3 | B3 | 234 nM
4 | B4 | 236 nM
5 | B5 | 239 nM
6 | B6 | 240 nM
7 | B7 | 244 nM
8 | B8 | 245 nM
9 | B9 | 245 nM
10 | B10 | 245 nM
11 | B11 | 246 nM
12 | B12 | 247 nM
13 | B13 | 44 nM
14 | B14 | 248 nM and 489 nM
15 | B15 | 248 nM
16 | B16 | 252 nM
17 | B17 | 257 nM and 463 nM
18 | B18 | 258 nM
19 | B19 | 260 nM and 232 nM
20 | B20 | 262 nM
21 | B21 | 264 nM and 161 nM
22 | B22 | 267 nM
23 | B23 | 269 nM
24 | B24 | 44 nM
25 | B25 | 284 nM
26 | B26 | 287 nM
27 | B27 | 287 nM
